Data on four substances can be found in article PMC3378762.

One data set deals with CC(=O)NCCCNCCCCNCCCN
As to the kind of experiment: steady-state oxygen consumption, oxygen electrode. The format is biochemical, Saccharomyces cerevisiae. To be noted: pH 9.0, 25 °C, 1.3 mM oxygen, 10% glycerol.

The subject of a further data set is NCCCNCCCCNCCCN
As to the kind of experiment: steady-state oxygen consumption, oxygen electrode. The format is biochemical, Saccharomyces cerevisiae. To be noted: pH 9.35, 25 °C, 1.3 mM oxygen, 10% glycerol, pH 9.35.

Another data set addresses Lys315 (UniProt position 315, FGTNNKIFLEF). The experiment in a line: kinetics. To be noted: Oxidative half-reaction, N1-acetylspermine as amine substrate; cited from earlier work.

With “Fms1 (Saccharomyces cerevisiae S288C; H67A)”, in the data set on CC(=O)NCCCNCCCCNCCCN (pH 9.0), the Km came to 50 ± 13 µM, the kcat worked out at 2.7 ± 0.1 s⁻¹ and the kcat/Km is 54000 ± 14000 M⁻¹ s⁻¹. For the same substance, in the data set with NCCCNCCCCNCCCN, the Km came to 1740 ± 310 µM, the kcat turned out to be 0.44 ± 0.03 s⁻¹ and the kcat/Km was 250 ± 50 M⁻¹ s⁻¹.
Take “Fms1 (Saccharomyces cerevisiae S288C; H67N)”: in the data set on CC(=O)NCCCNCCCCNCCCN, the Km turned out to be 18.6 ± 4.0 µM, the kcat is 1.35 ± 0.04 s⁻¹ and the kcat/Km stood at 72500 ± 15000 M⁻¹ s⁻¹.
In the case of “Fms1 (Saccharomyces cerevisiae S288C; H67Q)”, in the data set with CC(=O)NCCCNCCCCNCCCN (pH 9.0), the Km worked out at 47 ± 6 µM, the kcat was 3.9 ± 0.1 s⁻¹ and the kcat/Km came out at 83000 ± 11000 M⁻¹ s⁻¹. Further, in the data set on NCCCNCCCCNCCCN, the Km is 165 ± 25 µM and the kcat is 0.88 ± 0.01 s⁻¹.
For “N1-acetylpolyamine oxidase (mouse PAO) (Mus musculus)”, in the data set with Lys315, the pKa is listed as 7.0.

One may read the Km as the concentration of substrate that gives half-maximal velocity. As usually defined, the kcat is the maximal rate divided by the concentration of active sites. A word on the kcat/Km: it is the turnover number divided by the Michaelis constant. By pKa is commonly meant the negative logarithm of the acid dissociation constant.
